Measured values published in PMC2837607, “Orthophosphate binding at the dimer interface of Corynebacterium callunae starch phosphorylase: mutational analysis of its role for activity and stability of the enzyme” (BMC Biochemistry, 2010).
“And” between values parts separate entries of the source, which are not always exact repeats. Equal values may be shown once.

Assays:
[1] = target: T1, Corynebacterium callunae starch phosphorylase (CcGlgP) (Corynebacterium callunae, UniProt Q8KQ56); test: initial rate of glucan synthesis, Pi release; format: biochemical; design: full-length, N-terminal RGSHHHHHHGSA tag kept, from pQE 30-GlgP in E. coli JM109; homodimer (small tetramer fraction caused by tag); PLP enzyme; settings: 50 mM G1P, 20 g/l starch, pH 7.0, 30 °C; apparent activation through dimer stabilisation, not allosteric
T1 sequence (Q8KQ56 entry or part of it): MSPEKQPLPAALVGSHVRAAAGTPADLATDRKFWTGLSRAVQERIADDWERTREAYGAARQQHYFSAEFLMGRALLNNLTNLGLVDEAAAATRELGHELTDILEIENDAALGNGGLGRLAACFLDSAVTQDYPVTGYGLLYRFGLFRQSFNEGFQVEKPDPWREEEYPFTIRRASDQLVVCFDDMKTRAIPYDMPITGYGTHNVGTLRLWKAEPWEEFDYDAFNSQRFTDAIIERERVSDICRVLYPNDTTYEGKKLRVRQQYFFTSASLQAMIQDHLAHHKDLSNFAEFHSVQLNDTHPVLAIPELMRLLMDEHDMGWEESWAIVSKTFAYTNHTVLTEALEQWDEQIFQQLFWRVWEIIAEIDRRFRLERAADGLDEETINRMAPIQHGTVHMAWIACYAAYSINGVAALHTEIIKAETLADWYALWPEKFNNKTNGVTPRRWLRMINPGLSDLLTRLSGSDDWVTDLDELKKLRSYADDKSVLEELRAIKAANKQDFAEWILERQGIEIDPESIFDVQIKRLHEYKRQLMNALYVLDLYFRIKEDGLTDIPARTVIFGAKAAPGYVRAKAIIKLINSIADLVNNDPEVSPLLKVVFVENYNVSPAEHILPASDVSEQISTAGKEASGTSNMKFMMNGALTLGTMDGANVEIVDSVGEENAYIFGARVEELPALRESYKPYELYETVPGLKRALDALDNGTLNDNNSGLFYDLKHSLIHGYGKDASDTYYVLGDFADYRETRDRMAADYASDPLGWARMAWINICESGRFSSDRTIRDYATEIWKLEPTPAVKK

[2] = target: Corynebacterium callunae starch phosphorylase T28A (Corynebacterium callunae)
[3] = target: Corynebacterium callunae starch phosphorylase R141A (Corynebacterium callunae)
[4] = target: Corynebacterium callunae starch phosphorylase R141A (Corynebacterium callunae); test: SEC; R141A as isolated, prior to imidazole, 0.4 mg/ml; HiLoad 16/60 Superdex 200 prep grade, 50 mM potassium phosphate buffer pH 7.0, 0.15 M NaCl, 1 ml/min; calibrated with Bio-Rad Gel Filtration Standard
[5] = target: Corynebacterium callunae starch phosphorylase K31A (Corynebacterium callunae)
[6] = target: Corynebacterium callunae starch phosphorylase S174A (Corynebacterium callunae)
[7] = target: Corynebacterium callunae starch phosphorylase S174A (Corynebacterium callunae); remark: listed apart in the source
[8] = target: Corynebacterium callunae starch phosphorylase, wild-type (Corynebacterium callunae)
[9] = target: Corynebacterium callunae starch phosphorylase, wild-type (Corynebacterium callunae); remark: listed apart in the source
[10] = target: Corynebacterium callunae starch phosphorylase, wild-type (Corynebacterium callunae); remark: listed apart in the source
[11] = target: T2, Corynebacterium callunae starch phosphorylase (CcGlgP) (Corynebacterium callunae, UniProt Q8KQ56, S175A); test: colorimetric PLP quantitation of the isolated enzyme; format: binding; settings: covalent (Schiff base with active-site Lys); as isolated
T2 construct: full-length, N-terminal RGSHHHHHHGSA tag kept, from pQE 30-GlgP in E. coli JM109; homodimer (small tetramer fraction caused by tag); PLP enzyme
T2 sequence (Q8KQ56 entry or part of it S175A): as the sequence (Q8KQ56 entry or part of it) above, with S175A counted along it
From the text: (§1) colorimetric PLP quantitation of the isolated enzyme on Corynebacterium callunae starch phosphorylase (CcGlgP)

[12] = target: T3, Corynebacterium callunae starch phosphorylase (CcGlgP) (Corynebacterium callunae, UniProt Q8KQ56, K32A); test: as above; format: binding; settings: covalent (Schiff base with active-site Lys); as isolated
T3 construct: full-length, N-terminal RGSHHHHHHGSA tag kept, from pQE 30-GlgP in E. coli JM109; homodimer (small tetramer fraction caused by tag); PLP enzyme
T3 sequence (Q8KQ56 entry or part of it K32A): as the sequence (Q8KQ56 entry or part of it) above, with K32A counted along it
From the text: as §1

[13] = target: T4, Corynebacterium callunae starch phosphorylase (CcGlgP) (Corynebacterium callunae, UniProt Q8KQ56, T29A); test: as above; format: binding; settings: covalent (Schiff base with active-site Lys); as isolated
T4 construct: full-length, N-terminal RGSHHHHHHGSA tag kept, from pQE 30-GlgP in E. coli JM109; homodimer (small tetramer fraction caused by tag); PLP enzyme
T4 sequence (Q8KQ56 entry or part of it T29A): as the sequence (Q8KQ56 entry or part of it) above, with T29A counted along it
From the text: as §1

[14] = target: T5, Corynebacterium callunae starch phosphorylase (CcGlgP) (Corynebacterium callunae, UniProt Q8KQ56, R142A); test: as above; format: binding; settings: covalent (Schiff base with active-site Lys); as isolated
T5 construct: full-length, N-terminal RGSHHHHHHGSA tag kept, from pQE 30-GlgP in E. coli JM109; homodimer (small tetramer fraction caused by tag); PLP enzyme
T5 sequence (Q8KQ56 entry or part of it R142A): as the sequence (Q8KQ56 entry or part of it) above, with R142A counted along it
From the text: as §1

[15] = target: T1, Corynebacterium callunae starch phosphorylase (CcGlgP); test: as above; format: binding; design: full-length, N-terminal RGSHHHHHHGSA tag kept, from pQE 30-GlgP in E. coli JM109; homodimer (small tetramer fraction caused by tag); PLP enzyme; settings: covalent (Schiff base with active-site Lys); as isolated
From the text: as §1

[16] = target: T1, Corynebacterium callunae starch phosphorylase (CcGlgP); settings: 50 mM triethanolamine, pH 7.0; dimer-interface P- and CAP-sites, not the catalytic site; stabilisation against subunit dissociation

O=S(=O)(O)O [sulphate]
maximum stimulation of Vs at around 10 mM sulphate [1]: ~ 3 fold

Corynebacterium callunae starch phosphorylase T28A (enzyme)
half-life time (t1/2) of enzyme activity at 45°C, pH 7.0; no Pi, 10.0 mM Pi, 100 mM Pi (0.8, 2.2, 3.3 × 10^2 min) [2]: 330 min
half-life time (t1/2) of enzyme activity in 0.4 M imidazole at 30°C; no Pi, 5.0 mM Pi (1.9, 5.6 min) [2]: 5.6 min

Corynebacterium callunae starch phosphorylase R141A (enzyme)
half-life time (t1/2) of enzyme activity at 45°C, pH 7.0; no Pi, 10.0 mM Pi, 100 mM Pi (2.9, 7.5, 1.4 × 10^3 min) [3]: 1400 min
half-life time (t1/2) of enzyme activity in 0.4 M imidazole at 30°C; no Pi, 5.0 mM Pi (6.4, 27 min) [3]: 27 min
stoichiometry N [4]: 2 and 4

Corynebacterium callunae starch phosphorylase K31A (enzyme)
half-life time (t1/2) of enzyme activity at 45°C, pH 7.0; no Pi, 10.0 mM Pi, 100 mM Pi (5.3, 1.7 × 10^2, 3.5 × 10^3 min) [5]: 3500 min
half-life time (t1/2) of enzyme activity in 0.4 M imidazole at 30°C; no Pi, 5.0 mM Pi (10, 25 min) [5]: 25 min

Corynebacterium callunae starch phosphorylase S174A (enzyme)
half-life time (t1/2) of enzyme activity at 45°C, pH 7.0; no Pi, 10.0 mM Pi, 100 mM Pi (2.8, 33, 9.9 × 10^2 min) [6]: 990 min
half-life time (t1/2) of enzyme activity in 0.4 M imidazole at 30°C; no Pi, 5.0 mM Pi (14, 58 min) [6]: 58 min
enhancement of Vs by 10 mM sulphate, 50 mM G1P; protein 2.5 nM (~5-fold) and 50 nM (1.7-fold) [7]: 5 fold

Corynebacterium callunae starch phosphorylase, wild-type (enzyme)
half-life time (t1/2) of enzyme activity at 45°C, pH 7.0; no Pi, 10.0 mM Pi, 100 mM Pi (2.6, 2.8 × 10^2, 3.5 × 10^3 min) [8]: 3500 min
half-life time (t1/2) of enzyme activity in 0.4 M imidazole at 30°C; no Pi, 5.0 mM Pi (22, 160 min) [8]: 160 min
stimulation of the initial rate of glucan synthesis (Vs) by sulphate (5.0 - 40 mM (NH4)2SO4), 50 mM G1P, relative to the control lacking sulphate; maximum at around 10 mM sulphate [9]: 3 fold
apparent activation of Vs by 10 mM sulphate at 2.5 nM protein, 50 mM G1P [10]: 2.4 fold

Cc1ncc(COP(=O)(O)O)c(C=O)c1O [pyridoxal 5'-phosphate]
PLP / [μM/μM protein] [11]: 0.7 μM/μM protein
PLP / [μM/μM protein] [12]: 0.6 μM/μM protein
PLP / [μM/μM protein] [13]: 0.6 μM/μM protein
PLP / [μM/μM protein] [14]: 0.7 μM/μM protein
PLP / [μM/μM protein] [15]: 0.7 μM/μM protein

O=P(O)(O)O [orthophosphate]
inactivation at 45°C / 10.0 mM Pi [16]: 280 min
